Results on 24 substances are retold here after the supplement of paper PMC5998384.

The test system of series [1] is HeLa Kyoto. In words: thermal stability score vs G1/S (z-score of summed log2 fold changes over temperatures); higher = more thermally stable than in G1/S.
Series [2] concerns HeLa Kyoto. Put plainly: solubility in G1/S (NP-40 vs SDS abundance) (log2 ratio); higher = more soluble. The note with it: cell cycle stage: G1/S.
In series [3] the test system is HeLa Kyoto. In words: solubility change mitosis vs G1/S (difference of NP-40 vs SDS log2 ratios) (log2 ratio difference); higher = more soluble in mitosis.
For series [4], the system named is HeLa Kyoto. Put plainly: melting temperature (median over replicates), in situ; higher = more thermally stable.
The mark [5] stands for this setting: cell cycle stage: early G1 (4.5 h after nocodazole release).
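For melting temperature (median over replicates), in situ in this document: HeLa Kyoto cells synchronized by double thymidine or nocodazole block, proteins quantified by TMT10plex mass spectrometry, three independent biological replicates.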
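For solubility change mitosis vs G1/S (difference of NP-40 vs SDS log2 ratios) in this document: synchronized HeLa Kyoto cells (double thymidine block for G1/S, nocodazole release for mitosis), protein amounts in NP-40 versus SDS lysates quantified by mass spectrometry, three biological replicates.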
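For solubility in G1/S (NP-40 vs SDS abundance) in this document: HeLa Kyoto cells arrested at G1/S by double thymidine block, proteins quantified by TMT10plex mass spectrometry in mild NP-40 versus SDS extracts, three biological replicates.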
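For thermal stability score vs G1/S (z-score of summed log2 fold changes over temperatures) in this document: synchronized HeLa Kyoto cells, proteins quantified by TMT10plex mass spectrometry, three biological replicates, mitosis taken 0.5 h after nocodazole release, G1/S directly after double thymidine block.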

Chain of DBNL (chain, as listed by the source): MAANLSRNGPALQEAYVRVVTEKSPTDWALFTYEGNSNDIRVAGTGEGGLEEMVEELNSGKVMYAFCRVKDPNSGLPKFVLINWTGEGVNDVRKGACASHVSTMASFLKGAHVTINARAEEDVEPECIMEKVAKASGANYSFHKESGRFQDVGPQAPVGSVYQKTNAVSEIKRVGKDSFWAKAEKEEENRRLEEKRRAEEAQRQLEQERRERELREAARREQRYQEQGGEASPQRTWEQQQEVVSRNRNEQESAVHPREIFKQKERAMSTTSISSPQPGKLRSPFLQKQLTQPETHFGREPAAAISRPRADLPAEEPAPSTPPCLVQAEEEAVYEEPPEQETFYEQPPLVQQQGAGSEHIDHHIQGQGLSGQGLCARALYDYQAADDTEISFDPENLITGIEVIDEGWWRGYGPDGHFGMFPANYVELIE
Chain of CYCS (chain, as listed by the source): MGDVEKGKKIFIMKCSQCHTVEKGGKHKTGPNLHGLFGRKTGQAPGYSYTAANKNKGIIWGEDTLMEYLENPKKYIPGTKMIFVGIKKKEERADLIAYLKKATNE

With CTSC, the thermal stability score was 5.96 with HeLa Kyoto [1] (setting [5]) and 4.92 with HeLa Kyoto [1] (cell cycle stage: mitosis). Besides, the “solubility in G1/S (log2)” value with HeLa Kyoto [2] was 0.136. For the same substance, the “solubility change mitosis (log2)” value in the series on HeLa Kyoto [3] is -0.0557. Further, the melting temperature in the series with HeLa Kyoto [4] (cell cycle stage: G1/S) was found to be 56.8 °C; in the series with HeLa Kyoto [4] (cell cycle stage: mitosis), 59 °C.
For CTSZ, the thermal stability score in the series with HeLa Kyoto [1] (setting [5]) was -1.5; in the series on HeLa Kyoto [1] (cell cycle stage: mitosis), -2.8. In the series with HeLa Kyoto [2], the “solubility in G1/S (log2)” value was determined as 0.192. The “solubility change mitosis (log2)” value in the series with HeLa Kyoto [3] is -0.0457. Also, the melting temperature in the series on HeLa Kyoto [4] (cell cycle stage: G1/S) was 56.1 °C; in the series with HeLa Kyoto [4] (cell cycle stage: mitosis), 55 °C.
With CYCS, the thermal stability score is -1.79 in the series on HeLa Kyoto [1] (setting [5]) and -2.79 in the series with HeLa Kyoto [1] (cell cycle stage: mitosis). The “solubility in G1/S (log2)” value in the series with HeLa Kyoto [2] is -0.131. Besides, the “solubility change mitosis (log2)” value with HeLa Kyoto [3] amounted to 0.139. For the same substance, the melting temperature in the series on HeLa Kyoto [4] (cell cycle stage: G1/S) came out at 57.1 °C; in the series with HeLa Kyoto [4] (cell cycle stage: mitosis) it was 52.2 °C.
For the substance DBNL, the thermal stability score was -0.295 in the series with HeLa Kyoto [1] (setting [5]) and -0.854 in the series with HeLa Kyoto [1] (cell cycle stage: mitosis). The “solubility in G1/S (log2)” value with HeLa Kyoto [2] amounted to 0.177. For the same substance, the “solubility change mitosis (log2)” value in the series on HeLa Kyoto [3] was -0.0864. Besides, the values for the melting temperature in the series with HeLa Kyoto [4] (cell cycle stage: G1/S) and in the series with HeLa Kyoto [4] (cell cycle stage: mitosis) were 49.5 °C and 50.5 °C, respectively.
Take DICER1: the values for the thermal stability score in the series with HeLa Kyoto [1] (setting [5]) and in the series with HeLa Kyoto [1] (cell cycle stage: mitosis) were -0.0197 and 0.111, respectively. Moreover, the “solubility in G1/S (log2)” value in the series with HeLa Kyoto [2] is -0.101. Also, the “solubility change mitosis (log2)” value in the series with HeLa Kyoto [3] is -0.07. Besides, the values for the melting temperature in the series on HeLa Kyoto [4] (cell cycle stage: G1/S) and in the series with HeLa Kyoto [4] (cell cycle stage: mitosis) were 50.7 °C and 50.1 °C, respectively.
Regarding DIP2A, the thermal stability score in the series on HeLa Kyoto [1] (setting [5]) was found to be 0.00154; with HeLa Kyoto [1] (cell cycle stage: mitosis), 0.398. Besides, in the series on HeLa Kyoto [2], the “solubility in G1/S (log2)” value is -0.104. The “solubility change mitosis (log2)” value with HeLa Kyoto [3] is -0.0755. The melting temperature with HeLa Kyoto [4] (cell cycle stage: G1/S) stood at 51.3 °C.
For DIP2B, the thermal stability score was -1.32 in the series with HeLa Kyoto [1] (setting [5]) and -2.08 in the series on HeLa Kyoto [1] (cell cycle stage: mitosis). Further, the “solubility in G1/S (log2)” value with HeLa Kyoto [2] is -0.125. The “solubility change mitosis (log2)” value in the series with HeLa Kyoto [3] is -0.12. The melting temperature with HeLa Kyoto [4] (cell cycle stage: G1/S) came out at 53.4 °C; in the series with HeLa Kyoto [4] (cell cycle stage: mitosis), 53.1 °C.
As for DMXL1, the thermal stability score turned out to be 0.592 in the series with HeLa Kyoto [1] (setting [5]) and 1.02 in the series on HeLa Kyoto [1] (cell cycle stage: mitosis). The “solubility in G1/S (log2)” value in the series with HeLa Kyoto [2] was -0.236. For the same substance, the “solubility change mitosis (log2)” value in the series with HeLa Kyoto [3] is -0.0423. Also, the melting temperature in the series on HeLa Kyoto [4] (cell cycle stage: G1/S) is 51.4 °C; in the series on HeLa Kyoto [4] (cell cycle stage: mitosis), 50.9 °C.
As for DNAJA2, the thermal stability score is -0.554 in the series with HeLa Kyoto [1] (setting [5]) and -2.34 in the series with HeLa Kyoto [1] (cell cycle stage: mitosis). In addition, the “solubility in G1/S (log2)” value in the series on HeLa Kyoto [2] came out at 0.258. Moreover, the “solubility change mitosis (log2)” value in the series on HeLa Kyoto [3] is -0.191. The melting temperature with HeLa Kyoto [4] (cell cycle stage: G1/S) and with HeLa Kyoto [4] (cell cycle stage: mitosis) was 51.7 °C throughout.
For the substance DNAJB6, the thermal stability score with HeLa Kyoto [1] (setting [5]) stood at 0.898; in the series on HeLa Kyoto [1] (cell cycle stage: mitosis), 1.65. For the same substance, the “solubility in G1/S (log2)” value in the series on HeLa Kyoto [2] is -0.0238. For the same substance, the “solubility change mitosis (log2)” value in the series with HeLa Kyoto [3] was found to be 0.0684. Moreover, the melting temperature amounted to 52.8 °C in the series with HeLa Kyoto [4] (cell cycle stage: G1/S) and 49.8 °C in the series with HeLa Kyoto [4] (cell cycle stage: mitosis).
With DNAJC13, the thermal stability score in the series on HeLa Kyoto [1] (setting [5]) was -0.329; with HeLa Kyoto [1] (cell cycle stage: mitosis), -1.08. Moreover, the “solubility in G1/S (log2)” value in the series on HeLa Kyoto [2] is -0.463. Besides, in the series with HeLa Kyoto [3], the “solubility change mitosis (log2)” value is -0.026. The melting temperature with HeLa Kyoto [4] (cell cycle stage: G1/S) was determined as 50.8 °C; in the series with HeLa Kyoto [4] (cell cycle stage: mitosis), 50.3 °C.
With DOCK7, the values for the thermal stability score in the series on HeLa Kyoto [1] (setting [5]) and in the series on HeLa Kyoto [1] (cell cycle stage: mitosis) were 0.562 and 1.42, respectively. Further, the “solubility in G1/S (log2)” value in the series on HeLa Kyoto [2] is -0.219. Further, the “solubility change mitosis (log2)” value in the series on HeLa Kyoto [3] is -0.188. The values for the melting temperature with HeLa Kyoto [4] (cell cycle stage: G1/S) and in the series with HeLa Kyoto [4] (cell cycle stage: mitosis) were 48.2 °C and 49 °C, respectively.
With DYNC1H1, the results for the thermal stability score with HeLa Kyoto [1] (setting [5]) and in the series on HeLa Kyoto [1] (cell cycle stage: mitosis) were 0.0561 and 2.96, respectively. In addition, the “solubility in G1/S (log2)” value in the series on HeLa Kyoto [2] is -0.318. In the series on HeLa Kyoto [3], the “solubility change mitosis (log2)” value is -0.141. For the same substance, the melting temperature in the series on HeLa Kyoto [4] (cell cycle stage: G1/S) amounted to 51.8 °C; with HeLa Kyoto [4] (cell cycle stage: mitosis) it was 51.2 °C.
As for EED, the thermal stability score with HeLa Kyoto [1] (setting [5]) came to 1.42; in the series on HeLa Kyoto [1] (cell cycle stage: mitosis) it was 1.21. For the same substance, the “solubility in G1/S (log2)” value in the series with HeLa Kyoto [2] was -0.587. Besides, the “solubility change mitosis (log2)” value with HeLa Kyoto [3] worked out at 0.102. Besides, the melting temperature was determined as 49.7 °C with HeLa Kyoto [4] (cell cycle stage: G1/S) and 50.2 °C in the series on HeLa Kyoto [4] (cell cycle stage: mitosis).
For the substance EHBP1, the thermal stability score with HeLa Kyoto [1] (setting [5]) amounted to 0.393; with HeLa Kyoto [1] (cell cycle stage: mitosis), 0.935. Moreover, the “solubility in G1/S (log2)” value in the series on HeLa Kyoto [2] is 0.0745. In the series with HeLa Kyoto [3], the “solubility change mitosis (log2)” value is -0.0155. Moreover, the melting temperature is 50.3 °C in the series on HeLa Kyoto [4] (cell cycle stage: G1/S) and 52.4 °C with HeLa Kyoto [4] (cell cycle stage: mitosis).
Take EHBP1L1: the thermal stability score with HeLa Kyoto [1] (setting [5]) is -1.13; in the series on HeLa Kyoto [1] (cell cycle stage: mitosis), 2.05. Also, the “solubility in G1/S (log2)” value with HeLa Kyoto [2] was -0.0555. In addition, in the series with HeLa Kyoto [3], the “solubility change mitosis (log2)” value is -0.0696. Also, the values for the melting temperature in the series with HeLa Kyoto [4] (cell cycle stage: G1/S) and with HeLa Kyoto [4] (cell cycle stage: mitosis) were 49.7 °C and 49.1 °C, respectively.
For the substance ERP29, the figures for the thermal stability score in the series on HeLa Kyoto [1] (setting [5]) and with HeLa Kyoto [1] (cell cycle stage: mitosis) were 2.19 and -0.433, respectively. In addition, the “solubility in G1/S (log2)” value with HeLa Kyoto [2] came to 0.456. In the series on HeLa Kyoto [3], the “solubility change mitosis (log2)” value was 0.169. For the same substance, the figures for the melting temperature in the series with HeLa Kyoto [4] (cell cycle stage: G1/S) and with HeLa Kyoto [4] (cell cycle stage: mitosis) were 54.6 °C and 55.7 °C, respectively.
Consider FAM136A, for which the figures for the thermal stability score in the series with HeLa Kyoto [1] (setting [5]) and with HeLa Kyoto [1] (cell cycle stage: mitosis) were -3.91 and -5.74, respectively. The “solubility in G1/S (log2)” value in the series with HeLa Kyoto [2] stood at 0.101. In addition, in the series with HeLa Kyoto [3], the “solubility change mitosis (log2)” value stood at 0.0886. Besides, the melting temperature in the series with HeLa Kyoto [4] (cell cycle stage: G1/S) came to 52.9 °C; with HeLa Kyoto [4] (cell cycle stage: mitosis), 53.3 °C.
Regarding FAM208A, the thermal stability score with HeLa Kyoto [1] (setting [5]) was 0.605; with HeLa Kyoto [1] (cell cycle stage: mitosis), 0.529. In addition, the “solubility in G1/S (log2)” value in the series with HeLa Kyoto [2] is -0.847. Also, the “solubility change mitosis (log2)” value in the series on HeLa Kyoto [3] came out at 0.524. Besides, the melting temperature in the series with HeLa Kyoto [4] (cell cycle stage: G1/S) came out at 49.7 °C; with HeLa Kyoto [4] (cell cycle stage: mitosis) it was 50.2 °C.
FNDC3B: the figures for the thermal stability score in the series with HeLa Kyoto [1] (setting [5]) and with HeLa Kyoto [1] (cell cycle stage: mitosis) were 1.73 and 3.59, respectively. In the series on HeLa Kyoto [2], the “solubility in G1/S (log2)” value is -0.0341. Also, the “solubility change mitosis (log2)” value in the series on HeLa Kyoto [3] turned out to be 0.0529. For the same substance, the melting temperature with HeLa Kyoto [4] (cell cycle stage: G1/S) was determined as 47.9 °C; in the series on HeLa Kyoto [4] (cell cycle stage: mitosis), 50.5 °C.
GAPDH: the thermal stability score with HeLa Kyoto [1] (setting [5]) was -2.02; with HeLa Kyoto [1] (cell cycle stage: mitosis), -3.87. Also, in the series with HeLa Kyoto [2], the “solubility in G1/S (log2)” value came out at 0.191. In the series with HeLa Kyoto [3], the “solubility change mitosis (log2)” value was -0.0817. Moreover, the melting temperature in the series with HeLa Kyoto [4] (cell cycle stage: G1/S) came out at 59.5 °C; with HeLa Kyoto [4] (cell cycle stage: mitosis), 60.3 °C.
GCC2: the thermal stability score came to 0.337 with HeLa Kyoto [1] (setting [5]) and 1.48 in the series with HeLa Kyoto [1] (cell cycle stage: mitosis). In addition, the “solubility in G1/S (log2)” value with HeLa Kyoto [2] is 0.461. In addition, in the series with HeLa Kyoto [3], the “solubility change mitosis (log2)” value was -0.00143. Further, the melting temperature is 48.9 °C in the series on HeLa Kyoto [4] (cell cycle stage: G1/S) and 49.4 °C with HeLa Kyoto [4] (cell cycle stage: mitosis).
GLUD1: the thermal stability score with HeLa Kyoto [1] (setting [5]) is 2.33; in the series with HeLa Kyoto [1] (cell cycle stage: mitosis) it was -0.967. Moreover, the “solubility in G1/S (log2)” value with HeLa Kyoto [2] is 0.197. Moreover, the “solubility change mitosis (log2)” value in the series with HeLa Kyoto [3] was -0.0663. Further, the results for the melting temperature with HeLa Kyoto [4] (cell cycle stage: G1/S) and in the series on HeLa Kyoto [4] (cell cycle stage: mitosis) were 57.5 °C and 57.2 °C, respectively.
As to GNL2, the thermal stability score in the series with HeLa Kyoto [1] (setting [5]) was 4.89; in the series on HeLa Kyoto [1] (cell cycle stage: mitosis), 6.37. Also, the “solubility in G1/S (log2)” value with HeLa Kyoto [2] was -2.3. Moreover, in the series with HeLa Kyoto [3], the “solubility change mitosis (log2)” value was 1.08. Further, the melting temperature with HeLa Kyoto [4] (cell cycle stage: G1/S) stood at 51.2 °C; in the series on HeLa Kyoto [4] (cell cycle stage: mitosis), 52.7 °C.
